Values quoted from earlier work as cited in article PMC5146272.

How the values were obtained:
Raver1 (Homo sapiens) = Raver1 (Homo sapiens) (UniProt Q8IY67)
[1] = biological target: U2AF35 UHM (Homo sapiens) (UniProt Q01081)
Sequence of U2AF35 UHM (Homo sapiens) (Q01081 43-146, one chain of several): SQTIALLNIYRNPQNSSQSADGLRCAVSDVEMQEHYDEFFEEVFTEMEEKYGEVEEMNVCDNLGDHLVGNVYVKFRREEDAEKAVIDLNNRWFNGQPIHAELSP

Sequence of Raver1 (Homo sapiens) (Q8IY67 2-606): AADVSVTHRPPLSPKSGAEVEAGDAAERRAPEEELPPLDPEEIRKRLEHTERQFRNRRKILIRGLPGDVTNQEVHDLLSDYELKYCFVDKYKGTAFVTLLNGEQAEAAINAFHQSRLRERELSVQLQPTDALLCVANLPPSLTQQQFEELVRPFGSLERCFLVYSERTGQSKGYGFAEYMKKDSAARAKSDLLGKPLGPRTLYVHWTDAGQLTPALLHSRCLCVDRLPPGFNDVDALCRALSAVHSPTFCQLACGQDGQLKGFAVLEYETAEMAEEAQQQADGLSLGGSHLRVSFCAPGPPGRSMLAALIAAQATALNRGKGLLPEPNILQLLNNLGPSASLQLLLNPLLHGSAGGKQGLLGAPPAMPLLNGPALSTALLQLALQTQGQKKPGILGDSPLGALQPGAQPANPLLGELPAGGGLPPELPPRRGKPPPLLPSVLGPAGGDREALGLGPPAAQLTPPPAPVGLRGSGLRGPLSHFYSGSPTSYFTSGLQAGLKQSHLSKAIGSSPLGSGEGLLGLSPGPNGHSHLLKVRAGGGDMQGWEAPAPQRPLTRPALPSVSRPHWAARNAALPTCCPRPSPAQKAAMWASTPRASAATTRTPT
Sequence of U2AF65 PEP (P26368 85-112, one chain of several): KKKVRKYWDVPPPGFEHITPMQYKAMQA
Sequence of PTB RRM (P26599 184-260): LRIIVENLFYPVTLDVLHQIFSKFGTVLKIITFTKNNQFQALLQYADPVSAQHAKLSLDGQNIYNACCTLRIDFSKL

Substance | Kd (Raver1 (Homo sapiens)) [µM] | Kd [1] [µM]
PTB RRM (from UniProt P26599) | 100 | 
U2AF65 PEP (from UniProt P26368) |  | 0.002
